Test results: patent US20150307627A1 (BAC IP B V, published 2015)

Columns and labels:
[1] = target: T1, HuIgG1 (human, UniProt P01857-1 1-330 = IgG part); test: SPR, VHH immobilised, 1:1 Langmuir fit
T1 construct: Purified human IgG of subclass 1; also called Human-IgG1
Experimental: (§1) Binding affinity constants of anti IgG-Fc VHH fragments were determined using surface plasmon resonance analysis (SPR) on a BiaCore 3000. For this purpose, purified VHH fragments were immobilised onto the surface of a CM5 sensor chip and subsequently incubated with different concentrations of purified IgG antibodies in HBS-EP buffer. Binding was allowed for 3 minutes at 30 μl/min followed by a dissociation step of 15 minutes at 30 μl/min Binding curves were fitted according to a 1:1 Langmuir binding model using Biacore software.

[2] = target: T2, HuIgG2 (human, UniProt P01859-1 1-326 = IgG part); test: SPR, VHH immobilised, 1:1 Langmuir fit
T2 construct: Purified human IgG of subclass 2; also called Human-IgG2
T2 sequence (P01859 other isoform, or with tags, fused parts or gaps): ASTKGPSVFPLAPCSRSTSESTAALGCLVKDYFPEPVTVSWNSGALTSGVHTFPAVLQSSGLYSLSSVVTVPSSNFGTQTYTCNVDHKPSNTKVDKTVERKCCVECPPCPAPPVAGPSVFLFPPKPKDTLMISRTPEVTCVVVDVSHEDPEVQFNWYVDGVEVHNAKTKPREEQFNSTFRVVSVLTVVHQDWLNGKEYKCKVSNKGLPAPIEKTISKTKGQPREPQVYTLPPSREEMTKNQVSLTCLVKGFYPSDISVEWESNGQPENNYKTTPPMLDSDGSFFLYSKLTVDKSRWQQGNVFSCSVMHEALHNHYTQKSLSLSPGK
Experimental: as §1

[3] = target: T3, Mouse IgG; test: SPR, VHH immobilised, 1:1 Langmuir fit
T3 construct: also called IgG-Fc from mouse
Experimental: as §1

[4] = target: T4, HuIgG4 (human, UniProt P01861-1 1-327 = IgG part); test: SPR, VHH immobilised, 1:1 Langmuir fit
T4 construct: Purified human IgG of subclass 4; also called Human-IgG4
T4 sequence (P01861 other isoform, or with tags, fused parts or gaps): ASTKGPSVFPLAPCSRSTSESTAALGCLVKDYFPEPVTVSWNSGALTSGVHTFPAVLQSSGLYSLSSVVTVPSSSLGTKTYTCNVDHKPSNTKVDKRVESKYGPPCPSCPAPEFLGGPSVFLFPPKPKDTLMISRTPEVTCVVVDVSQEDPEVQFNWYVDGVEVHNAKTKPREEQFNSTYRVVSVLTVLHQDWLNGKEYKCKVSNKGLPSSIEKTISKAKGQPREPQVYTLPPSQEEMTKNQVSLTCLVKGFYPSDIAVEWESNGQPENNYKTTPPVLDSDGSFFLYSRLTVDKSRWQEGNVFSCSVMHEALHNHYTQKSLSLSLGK
Experimental: as §1

[5] = target: T5, Human IgG; test: SPR, VHH immobilised, 1:1 Langmuir fit
T5 construct: also called HuIgG; human IgG-Fc domains
Experimental: as §1

[6] = target: T6, HuIgG3 (human, UniProt P01860-1 1-377); test: SPR, VHH immobilised, 1:1 Langmuir fit
T6 construct: Purified human IgG of subclass 3; also called Human-IgG3
T6 sequence (P01860 other isoform, or with tags, fused parts or gaps): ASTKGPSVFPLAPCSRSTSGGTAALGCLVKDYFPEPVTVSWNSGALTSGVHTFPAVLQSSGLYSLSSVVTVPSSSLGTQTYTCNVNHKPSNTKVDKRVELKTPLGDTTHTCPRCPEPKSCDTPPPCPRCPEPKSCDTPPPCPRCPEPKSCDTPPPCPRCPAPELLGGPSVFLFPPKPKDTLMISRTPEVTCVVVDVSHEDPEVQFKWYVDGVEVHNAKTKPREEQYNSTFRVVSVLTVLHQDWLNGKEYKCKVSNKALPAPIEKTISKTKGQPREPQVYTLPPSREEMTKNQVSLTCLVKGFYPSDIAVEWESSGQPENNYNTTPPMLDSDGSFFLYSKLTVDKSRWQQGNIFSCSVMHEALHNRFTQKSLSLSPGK
Experimental: as §1

[7] = target: T7, Bovine IgG; test: SPR, VHH immobilised, 1:1 Langmuir fit
T7 construct: also called IgG-Fc from bovine
Experimental: as §1

[8] = target: Rat IgG2b (rat, UniProt P20761 1-333); test: SPR, VHH immobilised, IgG 50 µg/ml
Sequence of Rat IgG2b (P20761 whole entry, the tested form may be a part): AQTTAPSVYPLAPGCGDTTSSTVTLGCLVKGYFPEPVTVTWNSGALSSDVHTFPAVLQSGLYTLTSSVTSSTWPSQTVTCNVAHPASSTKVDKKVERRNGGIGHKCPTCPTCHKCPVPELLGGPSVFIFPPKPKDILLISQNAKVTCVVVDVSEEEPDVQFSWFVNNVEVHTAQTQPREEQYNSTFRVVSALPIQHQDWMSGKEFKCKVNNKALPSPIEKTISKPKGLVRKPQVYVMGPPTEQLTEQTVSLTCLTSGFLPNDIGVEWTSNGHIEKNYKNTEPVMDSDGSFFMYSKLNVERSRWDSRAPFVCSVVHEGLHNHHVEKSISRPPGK
Experimental: (§2) Broad binding reactivity of VHH fragment IgG-Fc-16 was determined using surface plasmon resonance analysis (SPR) on a BiaCore 3000. For this purpose, purified VHH fragment IgG-Fc-16 was immobilised onto the surface of a CM5 sensor chip and subsequently incubated with purified IgG antibodies (50 μg/ml) from different species in HBS-EP buffer. Binding was allowed for 1 minute at 5 μl/min followed by a dissociation step of 2.5 minutes at 5 μl/min. Binding signals (Resonance Units) were compared to background signals measured with HBS-EP buffer only. For comparison, the relative reactivity of Protein A and G towards different IgG species is also given.

[9] = target: Newborn Calf IgG; test: SPR, VHH immobilised, IgG 50 µg/ml
Experimental: as §2

[10] = target: T1, HuIgG1; test: SPR, VHH immobilised, IgG 50 µg/ml
Experimental: as §2

[11] = target: Mouse IgG2a (mouse, UniProt P01863 1-330 = IgG part); test: SPR, VHH immobilised, IgG 50 µg/ml
Sequence of Mouse IgG2a (P01863 whole entry): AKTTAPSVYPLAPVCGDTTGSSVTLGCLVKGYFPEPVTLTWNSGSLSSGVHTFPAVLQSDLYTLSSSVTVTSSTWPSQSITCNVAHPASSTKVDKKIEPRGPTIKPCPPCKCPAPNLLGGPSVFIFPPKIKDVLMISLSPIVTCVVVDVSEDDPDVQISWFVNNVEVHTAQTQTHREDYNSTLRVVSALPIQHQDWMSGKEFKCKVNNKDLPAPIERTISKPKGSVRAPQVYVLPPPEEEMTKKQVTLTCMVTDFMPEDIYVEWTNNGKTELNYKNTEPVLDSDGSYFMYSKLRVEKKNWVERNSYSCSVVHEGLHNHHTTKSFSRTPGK
Experimental: as §2

[12] = target: T2, HuIgG2; test: SPR, VHH immobilised, IgG 50 µg/ml
Experimental: as §2

[13] = target: T8, Sheep IgG; test: SPR, VHH immobilised, IgG 50 µg/ml
T8 construct: also called IgG-Fc from sheep
Experimental: as §2

[14] = target: T3, Mouse IgG; test: SPR, VHH immobilised, IgG 50 µg/ml
Experimental: as §2

[15] = target: T9, Goat IgG; test: SPR, VHH immobilised, IgG 50 µg/ml
T9 construct: also called IgG-Fc from goat
Experimental: as §2

[16] = target: Horse IgG; test: SPR, VHH immobilised, IgG 50 µg/ml
Experimental: as §2

[17] = target: Mouse IgG 1 (mouse, UniProt P01868 1-324 = IgG part); test: SPR, VHH immobilised, IgG 50 µg/ml
Experimental: as §2

[18] = target: T4, HuIgG4; test: SPR, VHH immobilised, IgG 50 µg/ml
Experimental: as §2

[19] = target: T10, Cat IgG; test: SPR, VHH immobilised, IgG 50 µg/ml
T10 construct: also called IgG-Fc from cat
Experimental: as §2

[20] = target: Rat IgG2a (rat, UniProt P20760 1-322); test: SPR, VHH immobilised, IgG 50 µg/ml
Sequence of Rat IgG2a (P20760 whole entry): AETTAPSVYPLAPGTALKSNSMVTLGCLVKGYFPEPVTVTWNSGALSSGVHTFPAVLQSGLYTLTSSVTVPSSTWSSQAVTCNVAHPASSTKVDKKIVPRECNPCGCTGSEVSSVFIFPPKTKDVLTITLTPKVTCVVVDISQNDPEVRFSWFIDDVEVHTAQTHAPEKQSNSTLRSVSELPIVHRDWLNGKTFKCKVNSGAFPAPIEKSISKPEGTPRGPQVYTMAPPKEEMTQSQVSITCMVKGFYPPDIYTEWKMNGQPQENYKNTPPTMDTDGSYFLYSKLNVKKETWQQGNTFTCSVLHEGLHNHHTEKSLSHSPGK
Experimental: as §2

[21] = target: T5, Human IgG; test: SPR, VHH immobilised, IgG 50 µg/ml
Experimental: as §2

[22] = target: T6, HuIgG3; test: SPR, VHH immobilised, IgG 50 µg/ml
Experimental: as §2

[23] = target: Foetal Calf IgG; test: SPR, VHH immobilised, IgG 50 µg/ml
Experimental: as §2

[24] = target: Rabbit IgG; test: SPR, VHH immobilised, IgG 50 µg/ml
Experimental: as §2

[25] = target: Swine IgG; test: SPR, VHH immobilised, IgG 50 µg/ml
Experimental: as §2

[26] = target: Human IgG, Fab fragment; test: SPR, VHH immobilised, IgG 50 µg/ml
Experimental: as §2

[27] = target: T11, Rat IgG; test: SPR, VHH immobilised, IgG 50 µg/ml
T11 construct: also called IgG-Fc from rat
Experimental: as §2

[28] = target: T7, Bovine IgG; test: SPR, VHH immobilised, IgG 50 µg/ml
Experimental: as §2

[29] = target: Rat IgG2c (rat, UniProt P20762 1-329); test: SPR, VHH immobilised, IgG 50 µg/ml
Sequence of Rat IgG2c (P20762 whole entry): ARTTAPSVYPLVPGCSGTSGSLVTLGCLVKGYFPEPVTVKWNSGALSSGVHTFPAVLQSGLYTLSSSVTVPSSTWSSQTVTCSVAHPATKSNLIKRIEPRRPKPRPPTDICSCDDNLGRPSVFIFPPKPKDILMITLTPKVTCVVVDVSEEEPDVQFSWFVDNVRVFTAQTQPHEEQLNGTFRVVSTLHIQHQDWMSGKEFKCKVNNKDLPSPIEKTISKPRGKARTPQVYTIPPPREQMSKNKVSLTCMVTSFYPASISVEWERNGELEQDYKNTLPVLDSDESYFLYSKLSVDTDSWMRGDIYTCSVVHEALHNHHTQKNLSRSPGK
Experimental: as §2

[30] = target: Human IgG, Fc fragment; test: SPR, VHH immobilised, IgG 50 µg/ml
Experimental: as §2

[31] = target: Rat IgG1a; test: SPR, VHH immobilised, IgG 50 µg/ml
Experimental: as §2

[32] = target: T12, Dog IgG; test: SPR, VHH immobilised, IgG 50 µg/ml
T12 construct: also called IgG-Fc from dog
Experimental: as §2

[33] = target: T13, Guinea pig IgG; test: SPR, VHH immobilised, IgG 50 µg/ml
T13 construct: also called Guinea IgG; IgG-Fc from guinea pig
Experimental: as §2

[34] = target: Donkey IgG; test: SPR, VHH immobilised, IgG 50 µg/ml
Experimental: as §2

[35] = target: Bovine IgG, Fc fragment; test: SPR, VHH immobilised, IgG 50 µg/ml
Experimental: as §2

[36] = target: Bovine IgG, Fab fragment; test: SPR, VHH immobilised, IgG 50 µg/ml
Experimental: as §2

[37] = target: T14, Syrian Hamster IgG; test: SPR, VHH immobilised, IgG 50 µg/ml
T14 construct: also called IgG-Fc from syrian hamster
Experimental: as §2

[38] = target: T5, Human IgG; test: affinity chromatography, VHH on NHS-Sepharose, 150 cm/h
Experimental: The dynamic binding capacity (DBC) of the IgG-Fc domain binding VHH fragments immobilized onto NHS sepharose was tested. 10 ml of 1.0 mg/ml human IgG in PBS pH 7.4 was loaded on a 400 μl column with a linear flow of 150 cm/h. After the washing with 10 column volumes PBS pH 7.4, the column was eluted with 0.1 M glycine buffer pH 3.0. Based on integration of the OD280 signal of the flow through and elution peak, the dynamic binding capacity of the column was calculated (Table 11).

T1 sequence (P01857 other isoform, or with tags, fused parts or gaps): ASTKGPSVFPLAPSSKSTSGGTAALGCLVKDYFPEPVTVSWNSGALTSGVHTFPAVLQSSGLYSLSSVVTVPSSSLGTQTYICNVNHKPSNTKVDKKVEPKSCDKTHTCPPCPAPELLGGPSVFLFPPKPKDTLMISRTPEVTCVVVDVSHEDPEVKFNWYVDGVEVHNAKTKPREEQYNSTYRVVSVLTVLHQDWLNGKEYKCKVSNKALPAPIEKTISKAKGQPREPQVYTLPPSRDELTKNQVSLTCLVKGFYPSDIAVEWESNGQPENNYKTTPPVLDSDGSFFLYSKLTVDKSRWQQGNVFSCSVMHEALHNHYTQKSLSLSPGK

- Ka [1]: 1.47e+08 M⁻¹
- Kd [1]: 6.81 nM
- koff [1]: 0.000211 s⁻¹
- kon [1]: 31000 M⁻¹ s⁻¹
- Ka [2]: 6.17e+07 M⁻¹
- Kd [2]: 16.2 nM
- koff [2]: 0.000355 s⁻¹
- kon [2]: 21900 M⁻¹ s⁻¹
- Ka [3]: 1.19e+08 M⁻¹
- Kd [3]: 8.41 nM
- koff [3]: 0.000198 s⁻¹
- kon [3]: 23500 M⁻¹ s⁻¹
- Ka [4]: 5.89e+08 M⁻¹
- Kd [4]: 1.7 nM
- koff [4]: 0.000107 s⁻¹
- kon [4]: 62900 M⁻¹ s⁻¹
- Ka [5]: 7.65e+07 M⁻¹
- Kd [5]: 13.1 nM
- koff [5]: 0.000462 s⁻¹
- kon [5]: 35300 M⁻¹ s⁻¹
- Ka [6]: 4.69e+07 M⁻¹
- Kd [6]: 21.3 nM
- koff [6]: 0.000849 s⁻¹
- kon [6]: 39800 M⁻¹ s⁻¹
- Ka [7]: 3.59e+08 M⁻¹
- Kd [7]: 2.79 nM
- koff [7]: 0.000386 s⁻¹
- kon [7]: 138000 M⁻¹ s⁻¹
- Binding signal (RU) [8]: 512 RU
- Binding signal (RU) [9]: 239 RU
- Binding signal (RU) [10]: 1570 RU
- Binding signal (RU) [11]: 427 RU
- Binding signal (RU) [12]: 795 RU
- Binding signal (RU) [13]: 846 RU
- Binding signal (RU) [14]: 468 RU
- Binding signal (RU) [15]: 257 RU
- Binding signal (RU) [16]: 430 RU
- Binding signal (RU) [17]: 1610 RU
- Binding signal (RU) [18]: 710 RU
- Binding signal (RU) [19]: 410 RU
- Binding signal (RU) [20]: 444 RU
- Binding signal (RU) [21]: 1110 RU
- Binding signal (RU) [22]: 499 RU
- Binding signal (RU) [23]: 260 RU
- Binding signal (RU) [24]: 800 RU
- Binding signal (RU) [25]: 811 RU
- Binding signal (RU) [26]: -2.8 RU
- Binding signal (RU) [27]: 108 RU
- Binding signal (RU) [28]: 309 RU
- Binding signal (RU) [29]: 2130 RU
- Binding signal (RU) [30]: 807 RU
- Binding signal (RU) [31]: 431 RU
- Binding signal (RU) [32]: 490 RU
- Binding signal (RU) [33]: 577 RU
- Binding signal (RU) [34]: 638 RU
- Binding signal (RU) [35]: 172 RU
- Binding signal (RU) [36]: -1.7 RU
- Binding signal (RU) [37]: 670 RU
- Dynamic binding capacity [38]: 11.5 mg human IgG/ml matrix
B1: IgG-Fc-16 (VHH)
VHH: QVQLQESGGGLVQAGGSLRLSCAASGRAVGNYIIGWFRQAPGKEREFVATTTRDGGSTFYADSVKGRFTISRDNAKNTVNLQMNSLEPEDTAVYYCAAKSWSVPLRPTSADFDSWGQGTQVTVSS
notes: also called VHH fragment IgG-Fc-16
